According to PMC11776367, “Biochemical and Structural Characterisation of a Bacterial Lactoperoxidase” (Chembiochem, 2024):

B1: CyanoPOX (cyanobacterium TDX16) (protein)
chain: AQNRTIDGTDNNLSHNVWGSTNQHLDRAGPAAYADGMSMPAGGSRPSARAVSNGIAAQTGSMLNDRMLSDWVWQWGQFLDHDLDLTDAASPAESFPIPVPMGDPFFDPFNTGTQTIGLSRSAYDPATGSVDARQQMNQITSWIDASNVYGSDMTRANALRTMSGGRLATSAGDLLPFNTGGLPNAGGTSPSLFLAGDVRSNEQSGLAAVHTLFVREHNRLADQIAAANPGMGDEDIYQQARKIVGAQMQIITYNEFLPALLGSAAPSPMSIGYDDSINPNIMNEFANACYRVGHTMLSPTILRLDNAGNVIPHGNLALQDAFFNPNRIINEGGIAPILKGLASQAMQEIDNKIVDDVRNFLFGPPGSGGLDLASLNIQRGRDHGLPDYNSTRVMMGLTSVSSFADISSDPAVQAALMSLYGTVNDIDLWVGALAEDHLAGSSVGELIAAVLGEQFTRLRDGDRYWYERDDFFVNNPSLLAELQATRLSDIIRRNSDITNIQDNVFLIPEPATLGLLMFGAAFLRKRRS
notes: Predicted protein 556 residues; synthetic codon-optimised gene, His-tagged (calculated 58 kDa), E. coli NEB10beta, monomer

What was measured:
Assay in all cases: purified protein
Conditions in all cases: 0.5 mM H2O2, 50 mM KPi, 150 mM NaCl, pH 7.0, 25 °C
[1] = tested on: COc1ccccc1O
[2] = tested on: I
[3] = substrate: COc1cccc(OC)c1O; type: biochemical, cyanobacterium TDX16
[4] = substrate: COc1ccccc1O; type: biochemical, cyanobacterium TDX16
[5] = substrate: I; type: biochemical, cyanobacterium TDX16

Molecule	Km [1] [mM]	kcat [1] [s⁻¹]	kcat/Km [1] [M⁻¹ s⁻¹]	Km [2] [mM]	kcat [2] [s⁻¹]	kcat/Km [2] [M⁻¹ s⁻¹]	Km [3] [mM]	kcat [3] [s⁻¹]	kcat/Km [3] [M⁻¹ s⁻¹]	Km [4] [mM]	kcat [4] [s⁻¹]	kcat/Km [4] [M⁻¹ s⁻¹]	Km [5] [mM]	kcat [5] [s⁻¹]	kcat/Km [5] [M⁻¹ s⁻¹]
bovine LPO (Bos taurus)	22	10	500	14	206	15000									
B1							35	620	18000	59	135	2000	7	885	126000
